Assay results: patent US9964541B2, “Method and devices for capturing circulating tumor” (THE BOARD OF TRUSTEES OF THE UNIVERSITY OF ILLINOIS, priority 2009, dated 2018)

System: P-selectin antibody
Assay: SPR antibody binding to oriented versus randomly immobilized P-selectin
Conditions: 20 μg/mL P-selectin antibody, 20 μL/min; compared to randomly immobilized P-selectin, comparable amounts immobilized
Method: Enhanced controllability of surfaces by covalent immobilization: Previously, we have shown the surfaces with covalently immobilized P-selectin present enhanced functional stability by approximately 10 times, as compared to those with physisorbed P-selectin. The surface stability was assessed using cell-mimicking microspheres as well as live neutrophils. We also developed immobilization chemistries (as shown FIG. 5) on gold coated, […] PEGylated surfaces to employ the flow-based SPR technique that quantitatively analyze the surface functions, offering: 1) easy surface functionalization using thiol chemistries due to the presence of a gold layer and 2) quantitative and real time monitoring of binding events without any modification of analytes. Thus, the SPR technique is useful particularly for determining controllability of density and orientation of P-selectin. The chemistries described in FIG. 5 were developed to achieve non-fouling surfaces and to provide reactive sites for subsequent P-selectin immobilization using oligo(ethylene glycol)-alkanethiols (Prochimia, Poland) on gold coated SPR chips. Briefly, the gold chip surface was cleaned before the subsequent formation of mixed self assembled monolayers (SAMs) by washing with absolute ethanol and drying by nitrogen blowing. […]

B1: oriented P-selectin: P-selectin biotinylated at its single cysteine, immobilized through biotin-streptavidin binding on OEG-biotin SAM (protein, UniProt P16109 42-830, looked up)
P-selectin: WTYHYSTKAYSWNISRKYCQNRYTDLVAIQNKNEIDYLNKVLPYYSSYYWIGIRKNNKTWTWVGTKKALTNEAENWADNEPNNKRNNEDCVEIYIKSPSAPGKWNDEHCLKKKHALCYTASCQDMSCSKQGECLETIGNYTCSCYPGFYGPECEYVRECGELELPQHVLMNCSHPLGNFSFNSQCSFHCTDGYQVNGPSKLECLASGIWTNKPPQCLAAQCPPLKIPERGNMTCLHSAKAFQHQSSCSFSCEEGFALVGPEVVQCTASGVWTAPAPVCKAVQCQHLEAPSEGTMDCVHPLTAFAYGSSCKFECQPGYRVRGLDMLRCIDSGHWSAPLPTCEAISCEPLESPVHGSMDCSPSLRAFQYDTNCSFRCAEGFMLRGADIVRCDNLGQWTAPAPVCQALQCQDLPVPNEARVNCSHPFGAFRYQSVCSFTCNEGLLLVGASVLQCLATGNWNSVPPECQAIPCTPLLSPQNGTMTCVQPLGSSSYKSTCQFICDEGYSLSGPERLDCTRSGRWTDSPPMCEAIKCPELFAPEQGSLDCSDTRGEFNVGSTCHFSCDNGFKLEGPNNVECTTSGRWSATPPTCKGIASLPTPGVQCPALTTPGQGTMYCRHHPGTFGFNTTCYFGCNAGFTLIGDSTLSCRPSGQWTAVTPACRAVKCSELHVNKPIAMNCSNLWGNFSYGSICSFHCLEGQLLNGSAQTACQENGHWSTTVPTCQAGPLTIQEALTYFGGAVASTIGLIMGGTLLALLRKRFRQKDDGKCPLNPHSHLGTYGVFTNAAFDPSP
modifications: biotinylated at cysteine
In the case of B1, the antibody binding response is reported as “significantly greater binding response”.
